Data: US20140087995A1 (published 2014)
Numbered stars: 1 amine (or outer) side, 2 acyl side, 3 side chain; on linkers, the order of the positions; unused ones are H or OH. Bridge positions count the residues as written; N and C are the ends. * marks the point of attachment. C20 diacid = O=C(O)CCCCCCCCCCCCCCCCCCC(=O)*; γGlu = O=C(O)[C@H](CCC(=O)[*:2])N[*:1]

B1: N^α1-[(4S)-4-carboxy-4-(19-carboxynonadecanoylamino)butanoyl]-[Glu14,Arg17,Pro21,Pro26,Pro37]-h-amylin (peptide)
peptide: {C20 diacid-γGlu}-KCNTATCATQRLAEFLRHSSPNFGAPLSSTNVGSNTP-NH2
modifications: disulfide 2-7
SMILES: CC(C)C[C@H](NC(=O)[C@H](CCCNC(=N)N)NC(=O)[C@H](CCC(N)=O)NC(=O)[C@@H](NC(=O)[C@H](C)NC(=O)[C@@H]1CSSC[C@H](NC(=O)[C@H](CCCCN)NC(=O)CC[C@H](NC(=O)CCCCCCCCCCCCCCCCCCC(=O)O)C(=O)O)C(=O)N[C@@H](CC(N)=O)C(=O)N[C@@H]([C@@H](C)O)C(=O)N[C@@H](C)C(=O)N[C@@H]([C@@H](C)O)C(=O)N1)[C@@H](C)O)C(=O)N[C@@H](C)C(=O)N[C@@H](CCC(=O)O)C(=O)N[C@@H](Cc1ccccc1)C(=O)N[C@@H](CC(C)C)C(=O)N[C@@H](CCCNC(=N)N)C(=O)N[C@@H](Cc1c[nH]cn1)C(=O)N[C@@H](CO)C(=O)N[C@@H](CO)C(=O)N1CCC[C@H]1C(=O)N[C@@H](CC(N)=O)C(=O)N[C@@H](Cc1ccccc1)C(=O)NCC(=O)N[C@@H](C)C(=O)N1CCC[C@H]1C(=O)N[C@@H](CC(C)C)C(=O)N[C@@H](CO)C(=O)N[C@@H](CO)C(=O)N[C@H](C(=O)N[C@@H](CC(N)=O)C(=O)N[C@H](C(=O)NCC(=O)N[C@@H](CO)C(=O)N[C@@H](CC(N)=O)C(=O)N[C@H](C(=O)N1CCC[C@H]1C(N)=O)[C@@H](C)O)C(C)C)[C@@H](C)O
notes: also called compound 5
B2: N^α1-[(4S)-4-carboxy-4-(19-carboxynonadecanoylamino)butanoyl]-[Glu14,Arg17,Pro21,Pro26]-h-amylin (peptide)
peptide: {C20 diacid-γGlu}-KCNTATCATQRLAEFLRHSSPNFGAPLSSTNVGSNTY-NH2
modifications: disulfide 2-7
SMILES: CC(C)C[C@H](NC(=O)[C@H](CCCNC(=N)N)NC(=O)[C@H](CCC(N)=O)NC(=O)[C@@H](NC(=O)[C@H](C)NC(=O)[C@@H]1CSSC[C@H](NC(=O)[C@H](CCCCN)NC(=O)CC[C@H](NC(=O)CCCCCCCCCCCCCCCCCCC(=O)O)C(=O)O)C(=O)N[C@@H](CC(N)=O)C(=O)N[C@@H]([C@@H](C)O)C(=O)N[C@@H](C)C(=O)N[C@@H]([C@@H](C)O)C(=O)N1)[C@@H](C)O)C(=O)N[C@@H](C)C(=O)N[C@@H](CCC(=O)O)C(=O)N[C@@H](Cc1ccccc1)C(=O)N[C@@H](CC(C)C)C(=O)N[C@@H](CCCNC(=N)N)C(=O)N[C@@H](Cc1c[nH]cn1)C(=O)N[C@@H](CO)C(=O)N[C@@H](CO)C(=O)N1CCC[C@H]1C(=O)N[C@@H](CC(N)=O)C(=O)N[C@@H](Cc1ccccc1)C(=O)NCC(=O)N[C@@H](C)C(=O)N1CCC[C@H]1C(=O)N[C@@H](CC(C)C)C(=O)N[C@@H](CO)C(=O)N[C@@H](CO)C(=O)N[C@H](C(=O)N[C@@H](CC(N)=O)C(=O)N[C@H](C(=O)NCC(=O)N[C@@H](CO)C(=O)N[C@@H](CC(N)=O)C(=O)N[C@H](C(=O)N[C@@H](Cc1ccc(O)cc1)C(N)=O)[C@@H](C)O)C(C)C)[C@@H](C)O
notes: also called compound 7
B3: N^α1-[(4S)-4-carboxy-4-(19-carboxynonadecanoylamino)butanoyl]-[Glu14,Arg17,Pro21,Pro27,Arg35]-h-amylin (peptide)
peptide: {C20 diacid-γGlu}-KCNTATCATQRLAEFLRHSSPNFGAIPSSTNVGSRTY-NH2
modifications: disulfide 2-7
SMILES: CC[C@H](C)[C@H](NC(=O)[C@H](C)NC(=O)CNC(=O)[C@H](Cc1ccccc1)NC(=O)[C@H](CC(N)=O)NC(=O)[C@@H]1CCCN1C(=O)[C@H](CO)NC(=O)[C@H](CO)NC(=O)[C@H](Cc1c[nH]cn1)NC(=O)[C@H](CCCNC(=N)N)NC(=O)[C@H](CC(C)C)NC(=O)[C@H](Cc1ccccc1)NC(=O)[C@H](CCC(=O)O)NC(=O)[C@H](C)NC(=O)[C@H](CC(C)C)NC(=O)[C@H](CCCNC(=N)N)NC(=O)[C@H](CCC(N)=O)NC(=O)[C@@H](NC(=O)[C@H](C)NC(=O)[C@@H]1CSSC[C@H](NC(=O)[C@H](CCCCN)NC(=O)CC[C@H](NC(=O)CCCCCCCCCCCCCCCCCCC(=O)O)C(=O)O)C(=O)N[C@@H](CC(N)=O)C(=O)N[C@@H]([C@@H](C)O)C(=O)N[C@@H](C)C(=O)N[C@@H]([C@@H](C)O)C(=O)N1)[C@@H](C)O)C(=O)N1CCC[C@H]1C(=O)N[C@@H](CO)C(=O)N[C@@H](CO)C(=O)N[C@H](C(=O)N[C@@H](CC(N)=O)C(=O)N[C@H](C(=O)NCC(=O)N[C@@H](CO)C(=O)N[C@@H](CCCNC(=N)N)C(=O)N[C@H](C(=O)N[C@@H](Cc1ccc(O)cc1)C(N)=O)[C@@H](C)O)C(C)C)[C@@H](C)O
notes: also called 16; compound 16
B4: N^α1-[(4S)-4-carboxy-4-(19-carboxynonadecanoylamino)butanoyl]-[Glu14,Arg17,Pro21,Pro27,Asp35,Pro37]-h-amylin (peptide)
peptide: {C20 diacid-γGlu}-KCNTATCATQRLAEFLRHSSPNFGAIPSSTNVGSDTP-NH2
modifications: disulfide 2-7
SMILES: CC[C@H](C)[C@H](NC(=O)[C@H](C)NC(=O)CNC(=O)[C@H](Cc1ccccc1)NC(=O)[C@H](CC(N)=O)NC(=O)[C@@H]1CCCN1C(=O)[C@H](CO)NC(=O)[C@H](CO)NC(=O)[C@H](Cc1c[nH]cn1)NC(=O)[C@H](CCCNC(=N)N)NC(=O)[C@H](CC(C)C)NC(=O)[C@H](Cc1ccccc1)NC(=O)[C@H](CCC(=O)O)NC(=O)[C@H](C)NC(=O)[C@H](CC(C)C)NC(=O)[C@H](CCCNC(=N)N)NC(=O)[C@H](CCC(N)=O)NC(=O)[C@@H](NC(=O)[C@H](C)NC(=O)[C@@H]1CSSC[C@H](NC(=O)[C@H](CCCCN)NC(=O)CC[C@H](NC(=O)CCCCCCCCCCCCCCCCCCC(=O)O)C(=O)O)C(=O)N[C@@H](CC(N)=O)C(=O)N[C@@H]([C@@H](C)O)C(=O)N[C@@H](C)C(=O)N[C@@H]([C@@H](C)O)C(=O)N1)[C@@H](C)O)C(=O)N1CCC[C@H]1C(=O)N[C@@H](CO)C(=O)N[C@@H](CO)C(=O)N[C@H](C(=O)N[C@@H](CC(N)=O)C(=O)N[C@H](C(=O)NCC(=O)N[C@@H](CO)C(=O)N[C@@H](CC(=O)O)C(=O)N[C@H](C(=O)N1CCC[C@H]1C(N)=O)[C@@H](C)O)C(C)C)[C@@H](C)O
notes: also called 11; compound 11
B5: N^α1-[(4S)-4-carboxy-4-(19-carboxynonadecanoylamino)butanoyl]-[Glu14,Arg17,Pro21,Pro27,His35]-h-amylin (peptide)
peptide: {C20 diacid-γGlu}-KCNTATCATQRLAEFLRHSSPNFGAIPSSTNVGSHTY-NH2
modifications: disulfide 2-7
SMILES: CC[C@H](C)[C@H](NC(=O)[C@H](C)NC(=O)CNC(=O)[C@H](Cc1ccccc1)NC(=O)[C@H](CC(N)=O)NC(=O)[C@@H]1CCCN1C(=O)[C@H](CO)NC(=O)[C@H](CO)NC(=O)[C@H](Cc1c[nH]cn1)NC(=O)[C@H](CCCNC(=N)N)NC(=O)[C@H](CC(C)C)NC(=O)[C@H](Cc1ccccc1)NC(=O)[C@H](CCC(=O)O)NC(=O)[C@H](C)NC(=O)[C@H](CC(C)C)NC(=O)[C@H](CCCNC(=N)N)NC(=O)[C@H](CCC(N)=O)NC(=O)[C@@H](NC(=O)[C@H](C)NC(=O)[C@@H]1CSSC[C@H](NC(=O)[C@H](CCCCN)NC(=O)CC[C@H](NC(=O)CCCCCCCCCCCCCCCCCCC(=O)O)C(=O)O)C(=O)N[C@@H](CC(N)=O)C(=O)N[C@@H]([C@@H](C)O)C(=O)N[C@@H](C)C(=O)N[C@@H]([C@@H](C)O)C(=O)N1)[C@@H](C)O)C(=O)N1CCC[C@H]1C(=O)N[C@@H](CO)C(=O)N[C@@H](CO)C(=O)N[C@H](C(=O)N[C@@H](CC(N)=O)C(=O)N[C@H](C(=O)NCC(=O)N[C@@H](CO)C(=O)N[C@@H](Cc1c[nH]cn1)C(=O)N[C@H](C(=O)N[C@@H](Cc1ccc(O)cc1)C(N)=O)[C@@H](C)O)C(C)C)[C@@H](C)O
notes: also called 18; compound 18
B6: N^α1-[(4S)-4-carboxy-4-(19-carboxynonadecanoylamino)butanoyl]-[Glu14,Arg17,Pro21,Pro27,Pro29]-h-amylin (peptide)
peptide: {C20 diacid-γGlu}-KCNTATCATQRLAEFLRHSSPNFGAIPSPTNVGSNTY-NH2
modifications: disulfide 2-7
SMILES: CC[C@H](C)[C@H](NC(=O)[C@H](C)NC(=O)CNC(=O)[C@H](Cc1ccccc1)NC(=O)[C@H](CC(N)=O)NC(=O)[C@@H]1CCCN1C(=O)[C@H](CO)NC(=O)[C@H](CO)NC(=O)[C@H](Cc1c[nH]cn1)NC(=O)[C@H](CCCNC(=N)N)NC(=O)[C@H](CC(C)C)NC(=O)[C@H](Cc1ccccc1)NC(=O)[C@H](CCC(=O)O)NC(=O)[C@H](C)NC(=O)[C@H](CC(C)C)NC(=O)[C@H](CCCNC(=N)N)NC(=O)[C@H](CCC(N)=O)NC(=O)[C@@H](NC(=O)[C@H](C)NC(=O)[C@@H]1CSSC[C@H](NC(=O)[C@H](CCCCN)NC(=O)CC[C@H](NC(=O)CCCCCCCCCCCCCCCCCCC(=O)O)C(=O)O)C(=O)N[C@@H](CC(N)=O)C(=O)N[C@@H]([C@@H](C)O)C(=O)N[C@@H](C)C(=O)N[C@@H]([C@@H](C)O)C(=O)N1)[C@@H](C)O)C(=O)N1CCC[C@H]1C(=O)N[C@@H](CO)C(=O)N1CCC[C@H]1C(=O)N[C@H](C(=O)N[C@@H](CC(N)=O)C(=O)N[C@H](C(=O)NCC(=O)N[C@@H](CO)C(=O)N[C@@H](CC(N)=O)C(=O)N[C@H](C(=O)N[C@@H](Cc1ccc(O)cc1)C(N)=O)[C@@H](C)O)C(C)C)[C@@H](C)O
notes: also called 37; compound 37

biological target: T1, human amylin receptor (amylin 3(a) receptor: human calcitonin receptor with RAMP-3) (human, UniProt P30988 25-474; O60896 24-148); assay: SPA displacement of 125I-rat amylin, hAmylin 3(a) receptor membranes
T1 construct: whole, on cells; also called hAmylin-R; hAmylinR
T1 sequence (looked up) 1: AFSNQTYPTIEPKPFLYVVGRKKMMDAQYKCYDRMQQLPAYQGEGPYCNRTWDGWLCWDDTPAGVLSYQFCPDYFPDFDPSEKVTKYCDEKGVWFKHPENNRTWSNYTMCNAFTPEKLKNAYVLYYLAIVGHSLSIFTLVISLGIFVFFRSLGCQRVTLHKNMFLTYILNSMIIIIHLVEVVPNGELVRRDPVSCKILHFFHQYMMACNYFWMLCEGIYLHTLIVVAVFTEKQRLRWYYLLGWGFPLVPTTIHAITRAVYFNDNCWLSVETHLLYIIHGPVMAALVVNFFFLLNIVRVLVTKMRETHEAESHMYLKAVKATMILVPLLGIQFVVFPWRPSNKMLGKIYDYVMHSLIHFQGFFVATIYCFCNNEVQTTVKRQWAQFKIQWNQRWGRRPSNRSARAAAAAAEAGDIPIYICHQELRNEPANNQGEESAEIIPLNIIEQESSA
T1 sequence (looked up) 2: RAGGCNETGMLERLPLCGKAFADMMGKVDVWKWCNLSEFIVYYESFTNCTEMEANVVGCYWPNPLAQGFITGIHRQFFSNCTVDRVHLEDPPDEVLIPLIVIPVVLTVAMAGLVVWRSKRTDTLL
Protocol: The binding assay was performed using scintillation proximity assay (SPA) beads (RPNQ0001) from PerkinElmer and cell membranes from the Amylin 3(a)/CRE-luc cells (as described in Assay (II)) were used. Membranes were prepared in the following way; the cells were rinsed with PBS and incubated with Versene for approximately 5 min before harvesting. The cells were flushed with PBS and the cell-suspension was centrifuged for 5 min at 1000 rpm. Cells were homogenized (ultrathurrax) in a buffer containing 20 mM Na-HEPES and 10 mM EDTA (pH 7.4) and centrifuged at 20.000 rpm for 15 min. The resulting pellet was resuspended, homogenized and centrifuged (20.000 rpm, 15 min) in a buffer containing 20 mM Na-HEPES and 0.1 mM EDTA (pH 7.4, buffer 2). The resulting pellet was resuspended in buffer 2 and protein concentration was measured (BCA protein Assay, Pierce). The homogenate was kept cold during the whole procedure. The membranes were kept at −80° C. until use. The assay was performed in a 384 well Optiplate (PerkinElmer) in a total volume of 40 ul. Membranes were mixed with SPA beads. Final concentration of membranes 35 ng/μL final and SPA beads was 0.05 mg/well. Test-compounds were dissolved in DMSO and further diluted in assay buffer (50 mM Hepes, pH 7.4, 1 mM CaCl2, 5 mM MgCl₂, 0.1% OA and 0.02% Tween20). […] The final mixture was incubated with shaking at 400 rpm for 120 min at 25° C. prior to centrifugation (1500 rpm, 10 min). Samples were analyzed on TopCounter™ (Packard). The IC₅₀ was calculated using (one site binding competition analysis) GraphPad Prism5 as a measure of receptor affinity.

Row | Binder | IC50 [nM]
1 | B1 | 0.374
2 | B2 | 0.674
3 | B3 | 0.894
4 | B4 | 0.105
5 | B5 | 0.554
6 | B6 | 0.97
